According to the nanobody polyreactivity screen of Harvey et al. (2022):

Assay: yeast display, Sf9 membrane polyspecificity reagent, FACS + sequencing; frameworks hold sequencing errors
Summary of the method: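 Polyreactivity labels are assigned by the sorting gate from which each nanobody was recovered. The gates were low and high (top ~1%), set on anti-HA fluorescence for expression and streptavidin fluorescence for reagent binding. Before sorting, galactose-induced (36–48 hours) yeast display cells were stained for 1 hour at 4 °C with 10% biotinylated, detergent-solubilized Sf9 membrane reagent.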

Sequence | polyreactivity (PSR sort gate)
QVQLVESGGGLVQAGGSLRLSCAASGRTFQDNAMGWSRQEPGKERELVAAISWRGGSTNYADSVKGRFTISRDNAKNTVFLQLNSLKPEDTAVYYCNRDPRKYGKLDYWGQGTQVTVSS | low polyreactivity
QVQLVESGGGLVQAGGSLRLSCAASGRTFQDNAMGWYRQAPGKERELVAAMSWRGGSTNYADSVKGRFTISRDNAKNTVYLQMKSLKPEDTAVYYCYRDQRKYGKLDYWVQGTQVTVSS | low polyreactivity
QVQLVESGGGLVQAGGSLRLSCAASGRTFQFYAMGWYRQAPGKERELVAAITYSGDSTYYADSVKGRFTISRDNAKNTVYLQMNSLKPEDTAVYYCAAGVWFYWYEYDYWGQGTQVTVSS | high polyreactivity
QVQLVESGGGLVQAGGSLRLSCAASGRTFQFYVMGWYRQAPGKERELVASIRSGGSTNYADSVKGRFTISRDNAKNTVYLQMNSLKPEDTAVYYFAARVASPYYRYDFWGQGTQVTVSS | low polyreactivity
QVQLVESGGGLVQAGGSLRLSCAASGRTFQKNTMGWYRQPPGKERELVAAIDYSATTTYYADSVKGRFTSSRDTAKNTVYLQMNSLKPEDTAVYYCAARWSYPRWEFDYWGQGTQVTVTS | high polyreactivity
QVQLVESGGGLVQAGGSLRLSCAASGRTFQLNAMGWYRQAPGKERELVAAISTRGGSTYYADSVKGRFTISRDNAKNTVYLQMNRLKPEDTAVYYCAAVTKTLYRSYFLMYYWGQGTQVTVSS | high polyreactivity
QVQLVESGGGLVQAGGSLRLSCAASGRTFQLNAMGWYRQGPGNERELVAAISTRGGSTYYADSVKGRFTISRDNAKNTVYLQMNSLKPEDTAVYYCAKDPSFTRGYKEGGGYDYWGQGTQVTVSS | high polyreactivity
QVQLVESGGGLVQAGGSLRLSCAASGRTFQLYAMGWYRQAPGKEMELVAAISTRGGSTYYADSVKGRFTISRDNAKNTVYLLMNSLKPEDTAVYYCAKDPSFTRGYKEGGGYDYWGQGTQVNVSS | high polyreactivity
QVQLVESGGGLVQAGGSLRLSCAASGRTFQRYTMGWYRQAPGKERELVASISRSGGSTYYADSVKGRFTISRDNAKNTVYLQMNSLKPEDTAVYYCATRSLFWNRNHYRVSSPVLYDYWGQGTQVTVSS | high polyreactivity
QVQLVESGGGLVQAGGSLRLSCAASGRTFQSYAMGWYRQEPGKERELVAAITITGGRTYYADSVKGRFTISRDNAKNTVYLQMNSLKPEDTAVYYCAAEEYSHYTLGYVYWGQGTQVTVSS | low polyreactivity
QVQLVESGGGLVQAGGSLRLSCAASGRTFQTNAMGWYRQAPGKERELVAAISSTGGSTYYADSVKGRFTISRDNAKNTVYLQMNRLKPEDTAVYYCNAGRTYRYDYWGQGTQVTVSS | high polyreactivity
QVQLVESGGGLVQAGGSLRLSCAASGRTFQTNAMGWYRQAPGKERELVAAISWSGGRTYYADSVKGRFTISRDNAKNTVYLQMNSLKPEDTAVYYCAARQWYRYKVRFDYCGQGTQVTVSS | high polyreactivity
QVQLVESGGGLVQAGGSLRLSCAASGRTFQVNAMGWYRQAPGKERELVAGITQRAGSTYYADSVKGRFTISRDNAKNTVYLQMNSLKPEDTAVYYCAAQDVHLWYENYYWGQGTQVTVSS | low polyreactivity
QVQLVESGGGLVQAGGSLRLSCAASGRTFQWYAMGWYRQAPGKERELVAAIRYSAGSTYYADSVKGRFTISRDHAKNTVYLQMNSLKREDTAVYYCAAEPYPYGPYYFLWLRYDYWGQGTQVTVSS | low polyreactivity
QVQLVESGGGLVQAGGSLRLSCAASGRTFQWYAMGWYRQAPGKERELVAAITSGGNTYYADSVKGRFTISRDNAKNTVYLQMNSLKPEDTAVYYCFLFYSRSMGYWGQGTQVTVSS | high polyreactivity
QVQLVESGGGLVQAGGSLRLSCAASGRTFQWYAMGWYRQAPGKERELVAGISFSGGSTYYADSVKGRFTISRDNAKNTVYLQMNSLKPEDTAVYYCAARRFSPGSSGHGYWGQGTQLTVSS | high polyreactivity
QVQLVESGGGLVQAGGSLRLSCAASGRTFQYNAMGWYRLAPGKERELVAAISSGGSTYYADSVKGRFSISRDNAKNTVYLQMNSLKPEDTAVYYCATYLAEYGYWGQGTQVTVSS | high polyreactivity
QVQLVESGGGLVQAGGSLRLSCAASGRTFQYNAMGWYRQAPGKERELVAAISSYGGSTYYADSVKGRFTISRDNAKNTVYLQMNSLKPEDTAVYYCNAYSQSWNFYGDGDDWGQGTQVTVSS | low polyreactivity
QVQLVESGGGLVQAGGSLRLSCAASGRTFQYNAMGWYRQAPGKERELVAAISWSDGITYYADSVKGSFTISRDNAKNTVYLQMNSLKPEDTAVYYCAAEGYGLSYYFPYDFWGQGTQVTVSS | high polyreactivity
QVQLVESGGGLVQAGGSLRLSCAASGRTFQYNAMGWYRQAPGKQWELVAAISSSGGSTYYADSVKGRFTISRDNAKITVYLKMNSLKPEDTAVYYCNAYSQSWNFYGDGDYWGQGTQVTVSS | low polyreactivity
QVQLVESGGGLVQAGGSLRLSCAASGRTFQYYAMGWYRQAPGKERELGAAISGIGTSTSYADSVKGRFTISRDNAKNTVYLQMNSLKPEDTAVYYCAARLLVPGSPWYTNYYWGQGTQVTVSS | low polyreactivity
QVQLVESGGGLVQAGGSLRLSCAASGRTFQYYAMGWYRQAPGKERELVAAISWSGGSTYYADSVKGRFTISRDNAKNTVYLQMNSLKPEVTAVYYCAASFRGQIVGYWGQGTQVTVSS | high polyreactivity

Sequence | polyreactivity (PSR sort gate)
QVQLVESGGGLVQAGGSLRLSCAASGRTFQYYAMGWYRQAPGKERELVAAITWTGGSTYYADSVKGRFTISRDNAKNTVYLQKNSLKPEDTAVYYCIARYKTLGSQSRSGPGGKYGYWGQGTQVTVSS | high polyreactivity
QVQLVESGGGLVQAGGSLRLSCAASGRTFQYYTMGWYRQAPGKERELVAAIRRGGSTYYADSVKGRFTISRDNAKNTVYLEMNSLKPEDTAVYYCAALYAFSLTARGMEYWGQGTQVTVSS | high polyreactivity
QVQLVESGGGLVQAGGSLRLSCAASGRTFRANAMGWYRTAPGKEMELVAAISQRGGNTYYADSVKGRFTISRDNAKYTVYLQMNSLKPEDTAVYYCAADITTYRRGRYEYEFWGQGTQVTVSS | high polyreactivity
QVQLVESGGGLVQAGGSLRLSCAASGRTFRDNAMGWYRQAPGKERELVAVITVDSSSTYYADSVKGRFTISRDNAKNTVYLQMNSLKPEDTAVYYCAAELYYFWFDYWGQGTQVTVSS | low polyreactivity
QVQLVESGGGLVQAGGSLRLSCAASGRTFRDYVMGWYRPAPGKERELVAAISTRGASTYYADSVKGRFTISRDNAKNTVYLQMNSLKPEDTAVYYCAARSTRRGNEYDYWGQGTQVTVSS | high polyreactivity
QVQLVESGGGLVQAGGSLRLSCAASGRTFRFNAMGWYRQAPGKERELVAAISSSGDSTYYADSVKGRFTISRDNAKNTVYLQMNSLKPEDTAVYYCAVRSRTPRAYYYWGQGTQVTVSS | low polyreactivity
QVQLVESGGGLVQAGGSLRLSCAASGRTFRFYAMGCYRQAPGKERELVAAINYGGGNTYYADSVKGRFTISRDNAKNTVYLQMNILKPEDTAVYYCAAQYYYRARWFPYDYWGQGTQVTVSS | high polyreactivity
QVQLVESGGGLVQAGGSLRLSCAASGRTFRFYAMGWYRQAPGKEREFVAAISRCVGSTYYADSVKGRFTISRDNAKNNVYLQMNSLKPEDTAVYYCNADYRSRYVEYDYWGQGTQVTVSS | high polyreactivity
QVQLVESGGGLVQAGGSLRLSCAASGRTFRFYAMGWYRQAPGKEREFVASISRGGITYYADSVKGRFTISRDNAKNTVYLQMNSLKPEDTAVYYCAAGYPVLLERYSSFGGYYYWGHGTQVTVSS | high polyreactivity
QVQLVESGGGLVQAGGSLRLSCAASGRTFRFYAMGWYRQAPGKERELVAAIRWSGGSTYYADSVKGRFTISRDNAKNTVYLQMNSLKPEETAVYYCAAARWSQYRTWMNYWGQGTQVTVSS | high polyreactivity
QVQLVESGGGLVQAGGSLRLSCAASGRTFRGNAMGWYRQAPGKERELVAAINWGVGSTYYADSVKGRFTISRDNAKNTVYLQMNSLKPEDTAVYYCATRSYRGRDGFGYWGQGTQVTVSS | high polyreactivity
QVQLVESGGGLVQAGGSLRLSCAASGRTFRGNAMGWYRQAPGKERELVAAITSSGGGTYYADSVKGRFTISRDNAKNTVYLQMYSLKPEDTAVYYCAAEYRDGYRFSYDYWGQGTQVTVSS | low polyreactivity
QVQLVESGGGLVQAGGSLRLSCAASGRTFRGNDMGWYRQAPGKERELVAAISWSGGGTYYADSVKGRFTISRDNAKNTVYLQMNSLKPEDTAVYYCAADLPHFRYYYWGQGTQVTVSS | low polyreactivity
QVQLVESGGGLVQAGGSLRLSCAASGRTFRGYAMGWYRQAPGKERELVAAINFSAGITYYADSVKGRFTISRDNAKNTVYLQMNSLKPEDTAVYYCAAEPEWWWRGYGYWGQGTLVTVSS | low polyreactivity
QVQLVESGGGLVQAGGSLRLSCAASGRTFRHNDMGWYRQAPGKERELVAAISYSGGSTHYADSVKGRFTISRDNAKNTVYLQMNSLKPEDTAVYYCNRYSYDSHFLYPFRGHDYWGQGTQVTVSS | low polyreactivity
QVQLVESGGGLVQAGGSLRLSCAASGRTFRHNTMGWYRQAPGKEREFVAVITTSGGSTYYADSVKGRFTISRDNAKNTVYLQMNSMKPEDTAVYYCNAKYHLSRSTYYYWGQGTQVTVSS | high polyreactivity
QVQLVESGGGLVQAGGSLRLSCAASGRTFRHYAMGWYRQAPGKDRELVAAISGSGGRTYYADSVKGRFTISRDNAKNTVYLQMNSLKPEDTAVYYCATRHTTRFYWGQGTQVTVSS | high polyreactivity
QVQLVESGGGLVQAGGSLRLSCAASGRTFRHYAMGWYRQAPGKERELVAAISGSGGRTYYADSVKGRFTISRDNAKNTVYLQMNSLKPEDTAVYYCNAYTWTYGEYEYWGQGTQVTVSS | high polyreactivity
QVQLVESGGGLVQAGGSLRLSCAASGRTFRIYAMGWYRQAPGKERELVAAIRWSGGTTYYADSVKGRFTISRDNAKNTVYLQRNSLKPEDTAVYYCAADSTNRYDYWGQGTQVTVSS | high polyreactivity
QVQLVESGGGLVQAGGSLRLSCAASGRTFRKYAMGWYRQAPGKEMELVAGITSIGGRTYYADSVKGRFTISRDNAKNTVYLQMNSLKPEDTAVYYCAADSIGRKNWSLHSNYWGQGTQVTVSS | low polyreactivity
QVQLVESGGGLVQAGGSLRLSCAASGRTFRKYAMGWYRQAPGKERELVAGITSIGGRTYYADSVKGRFTISRDNAKNTVYLQMNSLKPEDTAVYYCAAEPYGGGVKHSAYDYCGQGTQVTVSS | low polyreactivity
